Here are results for one molecule from patent US20220251157A1 (MAYO FOUNDATION FOR MEDICAL EDUCATION AND RESEARCH, published 2022).

Positions of bridges follow the written chain, without caps; N, C: chain ends. No end group written: not given here.

One experiment concerns the target T1, 12p4 (disulfide 1-9; also: displayed on phage).
T1 construct: one clone only
T1 peptide: CARNSTPPC
As to the kind of experiment: phage display panning (Ph.D.-C7C) on immobilized antibody, bound phage eluted; 1x clone. The source says: (§1) A phage display system (Ph.D.-C7C Peptide Library Kit, New England Biolabs) was used to select 7-mer peptides in a cysteine loop for either hIgM12 or hIgM22. Briefly, a random peptide bacteriophage library was panned against immobilized antibody. Unbound bacteriophage was washed away, and bound bacteriophage was eluted, regrown and re-panned against the antibody. Multiple (three to seven) rounds of panning led to development of a peptide consensus sequence for each antibody. Two similar consensus sequences were identified for hIgM22, while one consensus sequence was identified for hIgM12 (Table 1).

The next experiment addresses T2, 12p9a (disulfide 1-9; also: displayed on phage).
T2 peptide: CHQTEKLTC
As to the kind of experiment: phage display panning (Ph.D.-C7C) on immobilized antibody, bound phage eluted; 11x clones.
From the text: as §1

B1: B7-DC XAb (antibody)
light: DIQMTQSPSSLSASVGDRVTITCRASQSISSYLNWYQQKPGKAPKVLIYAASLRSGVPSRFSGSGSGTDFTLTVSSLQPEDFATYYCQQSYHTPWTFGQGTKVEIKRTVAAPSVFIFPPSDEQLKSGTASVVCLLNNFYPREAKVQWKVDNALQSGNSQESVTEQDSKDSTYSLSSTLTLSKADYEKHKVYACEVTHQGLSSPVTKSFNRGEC
heavy: QVQLQESGPGLLKPSETLSLTCTVSGGSVSLYYWSWIRQSPGKEPEWIGYIYSSGSTDYNPSLRSRVTISLDTSNNRFSLNLRSVTAADTAVYWCARSASIRGWFDPWGQGTLVTVSSGSASAPTLFPLVSCENSPSDTSSVAVGCLAQDFLPDSITFSWKYKNNSDISSTRGFPSVLRGGKYAATSQVLLPSKDVMQGTDEHVVCKVQHPNGNKEKNVPLPVIAELPPKVSVFVPPRDGFFGNPRKSKLICQATGFSPRQIQVSWLREGKQVGSGVTTDQVQAEAKESGPTTYKVTSTLTIKESDWLSQSMFTCRVDHRGLTFQQNASSMCVPDQDTAIRVFAIPPSFASIFLTKSTKLTCLVTDLTTYDSVTISWTRQNGEAVKTHTNISESHPNATFSAVGEASICEDDWNSGERFTCTVTHTDLPSPLKQTISRPKGVALHRPDVYLLPPAREQLNLRESATITCLVTGFSPADVFVQWMQRGQPLSPEKYVTSAPMPEPQAPGRYFAHSILTVSEEEWNTGETYTCVVAHEALPNRVTERTVDKSTGKPTLYNVSLVMSDTAGTCY
notes: Human monoclonal IgM from a Waldenstrom's macroglobulinemia patient; J chain not described; Used at 10 ug/ml; also called hIgM12; sHIgM12
For B1, the binding result with 12p4 and with 12p9a was “binds” throughout.
